# According to PMC10418163 (bioRxiv, 2024):
# B1: synthetic antibody sAB11 (Fab, V domains shown)
# VH: EVQLVESGGGLVQPGGSLRLSCAASGFNFYYYSIHWVRQAPGKGLEWVASISPYYGSTYYADSVKGRFTISADTSKNTAYLQMNSLRAEDTAVYYCARSMNWYYSSPYGMSQGMDYWGQGTLVTVSS
# VL: DIQMTQSPSSLSASVGDRVTITCRASQSVSSAVAWYQQKPGKAPKLLIYSASSLYSGVPSRFSGSRSGTDFTLTISSLQPEDFATYYCQQGSSSPLTFGQGTKVEIK
# Legend:
# [1] = target: Pseudomonas aeruginosa PhuR refolded from inclusion bodies (Pseudomonas aeruginosa PAO1, UniProt Q9HV88); experiment: SEC
# [2] = target: Pseudomonas aeruginosa PhuR, natively expressed (purified from E. coli outer membranes, heme-bound) (Pseudomonas aeruginosa PAO1, UniProt Q9HV88); experiment: ELISA
binder,measurement,setting,value
B1,binding result,[1],binds
same,EC50,[2],~9 nM
